One test deals with T1, Tp0655 (Treponema pallidum, UniProt O83661).
T1 sequence (O83661 24-348): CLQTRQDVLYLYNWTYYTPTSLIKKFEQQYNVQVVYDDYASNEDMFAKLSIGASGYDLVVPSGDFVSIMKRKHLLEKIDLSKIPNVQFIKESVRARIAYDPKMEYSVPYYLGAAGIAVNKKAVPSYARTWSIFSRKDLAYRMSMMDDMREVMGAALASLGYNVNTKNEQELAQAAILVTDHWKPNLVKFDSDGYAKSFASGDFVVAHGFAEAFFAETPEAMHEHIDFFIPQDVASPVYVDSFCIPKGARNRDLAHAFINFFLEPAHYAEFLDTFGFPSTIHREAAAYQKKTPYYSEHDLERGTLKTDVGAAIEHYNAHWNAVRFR
The experiment in a line: isothermal titration calorimetry. It counts as binding.

A further test has as its target HIF2α (Homo sapiens, UniProt Q99814). The experiment in a line: isothermal titration calorimetry. The class given is binding.
The target in test [1] is bovine α-chymotrypsin (bovine). The experiment in a line: ITC.
For test [2], the target named is bovine α-chymotrypsin (bovine). The experiment in a line: ITC. The source holds these as a separate data set.
In test [3] the target is bovine α-chymotrypsin (bovine). In words: ITC. The source holds these as a separate data set.
A further test has as its target hLF (UniProt P02788). The experiment in a line: ITC.
The target of another test is SynIIIC (Rattus norvegicus, UniProt O70441). The experiment in a line: isothermal titration calorimetry. It counts as binding.

Values joined by “and” are separate entries in the source; they are usually repeats but may differ in a detail not shown here. Identical values can stand only once. Like-named read-outs stand apart in the source and are kept apart here.

Chain of hLF (P02788 20-710): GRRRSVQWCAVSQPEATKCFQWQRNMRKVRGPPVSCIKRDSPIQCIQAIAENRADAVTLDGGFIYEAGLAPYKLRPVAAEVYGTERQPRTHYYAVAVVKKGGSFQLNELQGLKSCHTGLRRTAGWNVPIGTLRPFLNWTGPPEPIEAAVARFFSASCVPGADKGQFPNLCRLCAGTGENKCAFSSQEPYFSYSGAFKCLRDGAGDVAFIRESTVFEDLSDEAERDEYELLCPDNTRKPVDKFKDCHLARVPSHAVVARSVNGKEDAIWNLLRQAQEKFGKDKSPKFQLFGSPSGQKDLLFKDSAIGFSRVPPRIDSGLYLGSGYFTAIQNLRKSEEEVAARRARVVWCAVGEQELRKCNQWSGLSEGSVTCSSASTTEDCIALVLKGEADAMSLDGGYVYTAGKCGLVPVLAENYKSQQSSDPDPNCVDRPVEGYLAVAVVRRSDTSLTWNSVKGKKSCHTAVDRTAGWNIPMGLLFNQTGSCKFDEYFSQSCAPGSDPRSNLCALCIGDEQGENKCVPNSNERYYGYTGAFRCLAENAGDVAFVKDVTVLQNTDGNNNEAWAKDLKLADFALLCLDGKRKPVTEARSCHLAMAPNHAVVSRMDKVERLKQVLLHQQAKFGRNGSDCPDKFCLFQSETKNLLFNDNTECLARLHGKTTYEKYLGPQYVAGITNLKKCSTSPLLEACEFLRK
Chain of HIF2α (Q99814 239-350): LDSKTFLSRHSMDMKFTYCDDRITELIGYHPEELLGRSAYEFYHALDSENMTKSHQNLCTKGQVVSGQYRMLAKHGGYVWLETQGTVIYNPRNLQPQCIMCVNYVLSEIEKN
Chain of SynIIIC (O70441 89-403): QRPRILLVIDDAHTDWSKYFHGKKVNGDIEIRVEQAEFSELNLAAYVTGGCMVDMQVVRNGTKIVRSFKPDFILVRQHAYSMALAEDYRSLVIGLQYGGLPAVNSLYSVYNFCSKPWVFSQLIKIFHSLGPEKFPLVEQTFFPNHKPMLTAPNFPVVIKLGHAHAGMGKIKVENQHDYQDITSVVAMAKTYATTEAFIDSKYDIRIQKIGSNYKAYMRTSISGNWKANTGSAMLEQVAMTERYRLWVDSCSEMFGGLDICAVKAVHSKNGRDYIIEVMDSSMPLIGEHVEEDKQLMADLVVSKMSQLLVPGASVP

For the compound `NCCCCN` [Putrescine], binding on Tp0655 was characterised by a dissociation constant (Kd) of 0.117 µM.

With `O=[N+]([O-])c1c(Nc2cc(F)cc(Cl)c2)ccc2nonc12` [HBA, N-(3-Chloro-5-fluorophenyl)-4-nitrobenzo[c][1,2, 5]oxadiazol-5-amine], the dissociation constant (Kd) at HIF2α worked out at 0.105 µM.

In the case of “Soybean trypsin inhibitor (from UniProt P01070 25-205) (natural protein)”, the dH was 10.5 kcal/mol (2×) and 10.3 kcal/mol in test [1]; 10.3 kcal/mol and 10.9 kcal/mol and 9.7 kcal/mol in test [2]; 10.5 kcal/mol (2×) and 10.4 kcal/mol in test [3]. Further, the logKa in test [1] was 6.99 and 7 and 6.9; in test [2], 7.27. The log(Ka) in test [3] is 6.89 and 6.98 and 7.

`NCCCN` [DAP]: the Kd at Tp0655 was 36.2 µM.

For “Tp34 (from UniProt P19478 20-204) (natural protein)”, in the test with hLF, the Kd was 11.3 µM and 11 µM and 22.3 µM; the log(Ka) turned out to be 4.95; the logKa is 4.96 and 4.65.

`Nc1ncnc2c1ncn2[C@@H]1O[C@H](COP(=O)(O)OP(=O)(O)OP(=O)(O)O)[C@@H](O)[C@H]1O` [ATP] showed a Kd at SynIIIC of 0.136 µM.

Regarding “Tp34 (files named H70ATp34hLF...) (from UniProt P19478 20-204) (natural protein)”, the dH in the test with hLF worked out at 4.9 kcal/mol.

On to `NCCCCNCCCN` [Spermidine], for which the Kd at Tp0655 came to 2.37 µM.
